Reference: US20150017651A1 (University of Texas, published 2015)

B1: Gli3 (other)
chain: MEAQSHSSTTTEKKKVENSIVKCSTRTDVSEKAVASSTTSNEDESPGQTYHRERRNAITMQPQNVQGLSKVSEEPSTSSDERASLIKKEIHGSLPHVAEPSVPYRGTVFAMDPRNGYMEPHYHPPHLFPAFHPPVPIDARHHEGRYHYDPSPIPPLHMTSALSSSPTYPDLPFIRISPHRNPTAASESPFSPPHPYINPYMDYIRSLHSSPSLSMISATRGLSPTDAPHAGVSPAEYYHQMALLTGQRSPYADIIPSAATAGTGAIHMEYLHAMDSTRFSSPRLSARPSRKRTLSISPLSDHSFDLQTMIRTSPNSLVTILNNSRSSSSASGSYGHLSASAISPALSFTYSSAPVSLHMHQQILSRQQSLGSAFGHSPPLIHPAPTFPTQRPIPGIPTVLNPVQVSSGPSESSQNKPTSESAVSSTGDPMHNKRSKIKPDEDLPSPGARGQQEQPEGTTLVKEEGDKDESKQEPEVIYETNCHWEGCAREFDTQEQLVHHINNDHIHGEKKEFVCRWLDCSREQKPFKAQYMLVVHMRRHTGEKPHKCTFEGCTKAYSRLENLKTHLRSHTGEKPYVCEHEGCNKAFSNASDRAKHQNRTHSNEKPYVCKIPGCTKRYTDPSSLRKHVKTVHGPEAHVTKKQRGDIHPRPPPPRDSGSHSQSRSPGRPTQGALGEQQDLSNTTSKREECLQVKTVKAEKPMTSQPSPGGQSSCSSQQSPISNYSNSGLELPLTDGGSIGDLSAIDETPIMDSTISTATTALALQARRNPAGTKWMEHVKLERLKQVNGMFPRLNPILPPKAPAVSPLIGNGTQSNNTCSLGGPMTLLPGRSDLSGVDVTMLNMLNRRDSSASTISSAYLSSRRSSGISPCFSSRRSSEASQAEGRPQNVSVADSYDPISTDASRRSSEASQSDGLPSLLSLTPAQQYRLKAKYAAATGGPPPTPLPNMERMSLKTRLALLGDALEPGVALPPVHAPRRCSDGGAHGYGRRHLQPHDAPGHGVRRASDPVRTGSEGLALPRVPRFSSLSSCNPPAMATSAEKRSLVLQNYTRPEGGQSRNFHSSPCPPSITENVTLESLTMDADANLNDEDFLPDDVVQYLNSQNQAGYEQHFPSALPDDSKVPHGPGDFDAPGLPDSHAGQQFHALEQPCPEGSKTDLPIQWNEVSSGSADLSSSKLKCGPRPAVPQTRAFGFCNGMVVHPQNPLRSGPAGGYQTLGENSNPYGGPEHLMLHNSPGSGTSGNAFHEQPCKAPQYGNCLNRQPVAPGALDGACGAGIQASKLKSTPMQGSGGQLNFGLPVAPNESAGSMVNGMQNQDPVGQGYLAHQLLGDSMQHPGAGRPGQQMLGQISATSHINIYQGPESCLPGAHGMGSQPSSLAVVRGYQPCASFGGSRRQAMPRDSLALQSGQLSDTSQTCRVNGIKMEMKGQPHPLCSNLQNYSGQFYDQTVGFSQQDTKAGSFSISDASCLLQGTSAKNSELLSPGANQVTSTVDSLDSHDLEGVQIDFDAIIDDGDHSSLMSGALSPSIIQNLSHSSSRLTTPRASLPFPALSMSTTNMAIGDMSSLLTSLAEESKFLAVMQ
B2: Gli2 (other)
chain: METSASATASEKQEAKSGILEAAGFPDPGKKASPLVVAAAAAAAVAAQGVPQHLLPPFHAPLPIDMRHQEGRYHYEPHSVHGVHGPPALSGSPVISDISLIRLSPHPAGPGESPFNAPHPYVNPHMEHYLRSVHSSPTLSMISAARGLSPADVAQEHLKERGLFGLPAPGTTPSDYYHQMTLVAGHPAPYGDLLMQSGGAASAPHLHDYLNPVDVSRFSSPRVTPRLSRKRALSISPLSDASLDLQRMIRTSPNSLVAYINNSRSSSAASGSYGHLSAGALSPAFTFPHPINPVAYQQILSQQRGLGSAFGHTPPLIQPSPTFLAQQPMALTSINATPTQLSSSSNCLSDTNQNKQSSESAVSSTVNPVAIHKRSKVKTEPEGLRPASPLALTQGQVSGHGSCGCALPLSQEQLADLKEDLDRDDCKQEAEVVIYETNCHWEDCTKEYDTQEQLVHHINNEHIHGEKKEFVCRWQACTREQKPFKAQYMLVVHMRRHTGEKPHKCTFEGCSKAYSRLENLKTHLRSHTGEKPYVCEHEGCNKAFSNASDRAKHQNRTHSNEKPYICKIPGCTKRYTDPSSLRKHVKTVHGPDAHVTKKQRNDVHLRTPLLKENGDSEAGTEPGGPESTEASSTSQAVEDCLHVRAIKTESSGLCQSSPGAQSSCSSEPSPLGSAPNNDSGVEMPGTGPGSLGDLTALDDTPPGADTSALAAPSAGGLQLRKHMTTMHRFEQLKKEKLKSLKDSCSWAGPTPHTRNTKLPPLPGSGSILENFSGSGGGGPAGLLPNPRLSELSASEVTMLSQLQERRDSSTSTVSSAYTVSRRSSGISPYFSSRRSSEASPLGAGRPHNASSADSYDPISTDASRRSSEASQCSGGSGLLNLTPAQQYSLRAKYAAATGGPPPTPLPGLERMSLRTRLALLDAPERTLPAGCPRPLGPRRGSDGPTYGHGHAGAAPAFPHEAPGGGARRASDPVRRPDALSLPRVQRFHSTHNVNPGPLPPCADRRGLRLQSHPSTDGGLARGAYSPRPPSISENVAMEAVAAGVDGAGPEADLGLPEDDLVLPDDVVQYIKAHASGALDEGTGQVYPTESTGFSDNPRLPSPGLHGQRRMVAADSNVGPSAPMLGGCQLGFGAPSSLNKNNMPVQWNEVSSGTVDALASQVKPPPFPQGNLAVVQQKPAFGQYPGYSPQGLQASPGGLDSTQPHLQPRSGAPSQGIPRVNYMQQLRQPVAGSQCPGMTTTMSPHACYGQVHPQLSPSTISGALNQFPQSCSNMPAKPGHLGHPQQTEVAPDPTTMGNRHRELGVPDSALAGVPPPHPVQSYPQQSHHLAASMSQEGYHQVPSLLPARQPGFMEPQTGPMGVATAGFGLVQPRPPLEPSPTGRHRGVRAVQQQLAYARATGHAMAAMPSSQETAEAVPKGAMGNMGSVPPQPPPQDAGGAPDHSMLYYYGQIHMYEQDGGLENLGSCQVMRSQPPQPQACQDSIQPQPLPSPGVNQVSSTVDSQLLEAPQIDFDAIMDDGDHSSLFSGALSPSLLHSLSQNSSRLTTPRNSLTLPSIPAGISNMAVGDMSSMLTSLAEESKFLNMMT

Molecular target: mTOR (human, UniProt P42345 1-2549)
Test: IP-Western, BE3 or SKGT4 cells

| Binder | binding result |
| --- | --- |
| B1 | no binding |
| B2 | no binding |
